# Assays:
# [1] = biological target: the molecule itself; experiment: SEC-MALS; A13DBD bound to 11-mer DNA duplex; Superdex 75 HR 10/30 at 4°C, calibrated with mass standards, in line with MALS and refractive index; mass as a function of protein concentration; dimer to monomers
# [2] = biological target: the molecule itself; experiment: 15N NMR relaxation (rotational correlation time); A13DBD bound to 11-mer DNA duplex, about 0.5 mM, 310 K, 20 mM NaPO4, 5 mM MgCl2, pH 6.0; R2/R1 gives the rotational correlation time and a spherical mass
# [3] = biological target: the molecule itself; experiment: not stated; K343E mutant of A13DBD; the method is not named for this mutant (the neighbouring mutants were tested by SEC/MALS of the DNA complex)
protein,measurement,setting,value
"HOXA13 DNA binding domain (A13DBD), wild type (domain or fragment, numbers count on: GenBank AAB03322.1; The introduction gives residues 314-386 for A13DBD, the methods G320-S386; Cloned in pET-15b; also called HOXA13 homeodomain; WT; source: E. coli BL21(DE3), purified (His-tag purification, thrombin cleavage, Superdex-75)) not shown",Kd,[1],< 500 nM
same,stoichiometry N,[2],2
"HOXA13 DNA binding domain (A13DBD) F344A (domain or fragment, numbers count on: GenBank AAB03322.1; Made by QuikChange mutagenesis of pHisA13DBD; The luciferase assay used the same mutation in full-length HOXA13 (pCAGGS-HOXA13) in NG108-15 cells; source: E. coli BL21(DE3), purified (His-tag purification, thrombin cleavage, Superdex-75)) not shown",fold weakening of the dimerization affinity against wild type,[1],≥ 10 fold
"HOXA13 DNA binding domain (A13DBD) K343E (domain or fragment, numbers count on: GenBank AAB03322.1; source: E. coli BL21(DE3), purified (His-tag purification, thrombin cleavage, Superdex-75)) not shown",fold lowering of the dimerization affinity against wild type,[3],~5 fold
